Reference: PMC4627802, “Fine Mapping of the Interaction between C4b-Binding Protein and Outer Membrane Proteins LigA and LigB of Pathogenic Leptospira interrogans” (PLoS Neglected Tropical Diseases, 2015)

Experiments:
[1] = target: LigA10-11 (L. interrogans); experiment: ELISA; Lig tandem-domain constructs immobilised; 1 μg of C4BP mixed with heparin (0-10 mg/ml); detected with mouse monoclonal anti-C4BP α/β chains; binding without heparin set as 100%
LigB7-8 (L. interrogans) = experiment: as above
[2] = target: LigB9-10 (L. interrogans); experiment: as above
LcpA (L. interrogans) = experiment: ELISA; LigA, LigB or LcpA immobilised; commercial C4BP in 10 mM Na2HPO4, 1.8 mM KH2PO4 with NaCl 0 to 600 mM; detected with polyclonal rabbit anti-C4BP; binding without NaCl set as 100%
[3] = target: LigBC (fragment of leptospiral immunoglobulin-like protein B, residues 631-1156) (L. interrogans); experiment: as above
[4] = target: Human purified C4BP (α7β1) (human) (UniProt P04003); experiment: ELISA; increasing concentrations of Lig proteins with a fixed amount of C4BP (1 μg); Kd estimated by nonlinear regression, Y = Bmax*X/(Kd + X)
[5] = target: T1, Human purified C4BP (α7β1) (human, UniProt P04003 49-597; P20851 18-252); experiment: as above; conditions: both partners purified
T1 construct: also called C4BP WT (commercial); source: bought: Complement Technology (Texas, USA), human purified; copies: 7 + 1
T1 sequence 1: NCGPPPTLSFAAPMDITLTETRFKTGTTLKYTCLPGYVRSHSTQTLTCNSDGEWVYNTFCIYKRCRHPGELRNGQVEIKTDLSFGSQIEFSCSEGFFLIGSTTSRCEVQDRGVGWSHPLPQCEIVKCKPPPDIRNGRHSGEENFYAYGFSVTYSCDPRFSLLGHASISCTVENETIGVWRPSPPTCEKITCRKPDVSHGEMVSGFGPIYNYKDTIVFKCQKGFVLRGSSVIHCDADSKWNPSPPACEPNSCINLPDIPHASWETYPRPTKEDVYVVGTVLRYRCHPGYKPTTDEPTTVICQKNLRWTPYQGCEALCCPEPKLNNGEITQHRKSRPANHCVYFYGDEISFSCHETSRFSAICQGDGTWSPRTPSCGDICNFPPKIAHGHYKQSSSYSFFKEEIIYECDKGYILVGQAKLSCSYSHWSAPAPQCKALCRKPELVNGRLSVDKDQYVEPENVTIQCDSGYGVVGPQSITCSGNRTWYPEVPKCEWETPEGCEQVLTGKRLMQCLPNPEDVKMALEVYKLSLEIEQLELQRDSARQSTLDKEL
T1 sequence 2: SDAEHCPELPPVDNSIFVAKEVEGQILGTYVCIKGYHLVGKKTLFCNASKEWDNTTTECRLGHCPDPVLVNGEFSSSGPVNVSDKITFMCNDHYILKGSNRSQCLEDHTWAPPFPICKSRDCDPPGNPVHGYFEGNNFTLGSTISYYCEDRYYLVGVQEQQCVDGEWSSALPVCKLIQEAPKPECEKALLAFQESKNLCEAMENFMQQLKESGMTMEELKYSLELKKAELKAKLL

## Human purified C4BP (α7β1) (from UniProt P04003 49-597; P20851 18-252) (complex)
[1]
  percent reduction of binding with 10 mg/ml heparin: 35%
LigB7-8 (L. interrogans)
  percent reduction of binding with 10 mg/ml heparin: 45%
[2]
  percent reduction of binding with 10 mg/ml heparin: 27%
LcpA (L. interrogans)
  percent decrease of binding at 150 mM NaCl: 30%
[3]
  percent decrease of binding at 150 mM NaCl: 45%

## LigBC (fragment of leptospiral immunoglobulin-like protein B, residues 631-1156) (domain or fragment)
[4]
  Kd: 51.6 nM

B1: LigAC (C-terminal fragment of leptospiral immunoglobulin-like protein A, residues 631-1225) (domain or fragment)
chain: LTVSNTNAKRGLGSTLKQGTVKVTASMGGIEDSVDFTVTQATLTSIEVSPTRASIAKGMTQKFTATGIFTDHSKKNITEQVTWKSSSKALSMLNAPGEEGTGKAIAVGKTTITATLEKLSGKTDITVTPAVLTSIQISPVKHSLVKGLTEKFSATGIYSDNSNKDITSSVTWHSSNNSVATISNTKGYQGQAYGTGTGTVNIKATLGNVSSQVSKLSVTAAELTEIVLNPTSSHKAKGLTENFKATGVFTDNSTKDITDQVTWKSSNAAYAKISNATGSKGVVNALSKGTSHISATLGSISSANATFQVTPARIASIEVTPNNFFLIKGLSHPFKAIGIYTDNTKTDITKQVSWSSSDPNVASIDNTFSLAGSATAIDDGKTNITATLSDSMSASTTLYVTSAVLIDIEVKPSIFVLSEGLTLQLTATGIYSDHSTHDLTQVVQWTSSKPSNIAIENTAGKKGKVTALAFGDSEFTATYDSIKSNRAWIFVNDEKLVNITISSSQVLTDKGSAQQFKAIGTFQGGSQLDLTDLVTWKSSDSKVVSISNSNDDRGLTTALSVGSSKISAIYGSIHSDSIDFEVTPEILASIKTEP
[5]
  Kd: 88.8 ± 7.8 nM
